The record followed here is PMC12756731, “Substitution of Zn^2+ with Ni^2+ Alters Kinetic Steps in D‑2-Hydroxyglutarate Dehydrogenase from Pseudomonas aeruginosa PAO1” (ACS Omega, 2025).

The target in series [1] is T1, D-2-hydroxyglutarate dehydrogenase (P. aeruginosa D2HGDH; EFAD-Zn^2+, EFAD-Ni^2+) (Pseudomonas aeruginosa, UniProt Q9I6H4).
T1 construct: gene PA0317; 6 His-tag at the tail of the gene (C-terminal), pET20b(+), E. coli Rosetta(DE3)pLysS; loaded with Zn2+ or Ni2+
T1 sequence (Q9I6H4 1-464): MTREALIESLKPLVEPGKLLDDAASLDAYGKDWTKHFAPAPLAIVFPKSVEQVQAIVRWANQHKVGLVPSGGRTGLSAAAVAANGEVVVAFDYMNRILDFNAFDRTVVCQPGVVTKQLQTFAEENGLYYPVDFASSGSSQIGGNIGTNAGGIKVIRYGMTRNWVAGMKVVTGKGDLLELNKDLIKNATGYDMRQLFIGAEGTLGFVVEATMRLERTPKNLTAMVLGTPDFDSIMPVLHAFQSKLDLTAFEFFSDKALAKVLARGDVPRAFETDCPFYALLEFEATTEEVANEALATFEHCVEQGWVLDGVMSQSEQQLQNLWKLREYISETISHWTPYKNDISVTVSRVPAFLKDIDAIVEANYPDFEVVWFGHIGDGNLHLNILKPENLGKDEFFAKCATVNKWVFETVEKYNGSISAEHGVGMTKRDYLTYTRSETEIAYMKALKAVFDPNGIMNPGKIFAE
The series can be described thus: UV-vis absorbance of purified enzyme with bound flavin. The format is binding. As to conditions: co-purified oxidized FAD in EFAD-Ni2+ enzyme; maxima at 380 and 450 nm.

Substrate in series [2]: O=C(O)CC[C@@H](O)C(=O)O
The series can be described thus: PMS-driven oxygen consumption, Clark-type oxygen electrode, initial rates. The format is biochemical, Pseudomonas aeruginosa. As to conditions: 1 mM PMS (saturating), 25 mM NaPO4, pH 7.4, 25 °C. The source says: PMS-driven oxygen consumption, Clark-type oxygen electrode, initial rates on D-2-hydroxyglutarate dehydrogenase (P. aeruginosa D2HGDH; EFAD-Zn^2+, EFAD-Ni^2+)

Where [3] appears, read: Ni2+-substituted enzyme (EFAD-Ni2+), non-native metal.
[4] abbreviates: native Zn2+-loaded enzyme (EFAD-Zn2+).

Turning to `Cc1cc2nc3c(=O)[nH]c(=O)nc-3n(C[C@H](O)[C@H](O)[C@H](O)COP(=O)(O)OP(=O)(O)OC[C@H]3O[C@@H](n4cnc5c(N)ncnc54)[C@H](O)[C@@H]3O)c2cc1C` [FAD], the “UV-vis absorbance of purified enzyme with bound flavin” value in series [1] is given as “enzyme was in a fully oxidized state with the bound FAD cofactor”.

B1: D-2-hydroxyglutarate dehydrogenase (P. aeruginosa D2HGDH; EFAD-Zn^2+, EFAD-Ni^2+) (Pseudomonas aeruginosa PAO1) (protein)
chain: MTREALIESLKPLVEPGKLLDDAASLDAYGKDWTKHFAPAPLAIVFPKSVEQVQAIVRWANQHKVGLVPSGGRTGLSAAAVAANGEVVVAFDYMNRILDFNAFDRTVVCQPGVVTKQLQTFAEENGLYYPVDFASSGSSQIGGNIGTNAGGIKVIRYGMTRNWVAGMKVVTGKGDLLELNKDLIKNATGYDMRQLFIGAEGTLGFVVEATMRLERTPKNLTAMVLGTPDFDSIMPVLHAFQSKLDLTAFEFFSDKALAKVLARGDVPRAFETDCPFYALLEFEATTEEVANEALATFEHCVEQGWVLDGVMSQSEQQLQNLWKLREYISETISHWTPYKNDISVTVSRVPAFLKDIDAIVEANYPDFEVVWFGHIGDGNLHLNILKPENLGKDEFFAKCATVNKWVFETVEKYNGSISAEHGVGMTKRDYLTYTRSETEIAYMKALKAVFDPNGIMNPGKIFAE
notes: 6 His-tag at the tail of the gene (C-terminal), pET20b(+), E. coli Rosetta(DE3)pLysS; loaded with Zn2+ or Ni2+
For B1, in series [2] (setting [3]), the Km turned out to be 140 ± 10 µM, the kcat was determined as 18 ± 1 s⁻¹ and the kcat/Km came to 130000 ± 9000 M⁻¹ s⁻¹. Also, in series [2] (setting [4]), the Km amounted to 150 ± 10 µM, the kcat stood at 30 ± 1 s⁻¹ and the kcat/Km came out at 205000 ± 10000 M⁻¹ s⁻¹.

By Km is commonly meant the substrate concentration at which the rate is half of its maximum. By kcat is commonly meant the maximal rate divided by the concentration of active sites. As usually defined, the kcat/Km is the second-order rate constant that governs catalysis at low substrate concentration.
